Substitutions are numbered along the chain they refer to.

One assay has as its target GPR56 (Mus musculus) (UniProt Q8K209). The following applies: cited from earlier work.
Assay [1] deals with T1, human recombinant transglutaminase 2 (TG2), wild type (human, UniProt P21980 1-687).
T1 construct: transglutaminase 2, human; also called native TG2; wild type TG2; source: E. coli BL21(DE3pLysS), purified to homogeneity
T1 sequence (looked up): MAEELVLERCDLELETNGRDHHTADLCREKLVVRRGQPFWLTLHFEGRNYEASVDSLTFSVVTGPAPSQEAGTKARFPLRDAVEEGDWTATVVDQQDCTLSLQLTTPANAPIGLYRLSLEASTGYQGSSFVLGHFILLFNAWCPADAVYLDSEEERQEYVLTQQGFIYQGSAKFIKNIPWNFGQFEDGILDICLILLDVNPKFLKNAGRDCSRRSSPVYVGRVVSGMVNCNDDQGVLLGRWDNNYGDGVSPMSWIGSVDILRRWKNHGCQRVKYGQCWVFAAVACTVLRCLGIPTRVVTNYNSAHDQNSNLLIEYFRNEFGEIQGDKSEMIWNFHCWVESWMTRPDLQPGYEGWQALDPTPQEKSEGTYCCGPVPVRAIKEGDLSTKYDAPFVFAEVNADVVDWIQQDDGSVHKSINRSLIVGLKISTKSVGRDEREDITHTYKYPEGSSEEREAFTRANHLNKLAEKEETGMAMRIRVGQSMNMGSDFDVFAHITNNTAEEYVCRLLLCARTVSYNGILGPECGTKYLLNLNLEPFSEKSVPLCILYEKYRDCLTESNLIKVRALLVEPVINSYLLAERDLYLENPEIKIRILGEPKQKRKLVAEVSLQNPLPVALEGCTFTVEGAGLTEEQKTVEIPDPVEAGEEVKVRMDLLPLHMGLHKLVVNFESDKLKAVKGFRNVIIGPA
Nature of the assay: pull-down; N-GPR56-Fc fusion proteins from CHO conditioned medium held on protein G-Sepharose beads, washed (20 mM Tris/HCl, pH 7.4, 150 mM NaCl), incubated with TG2 (50 µg/mL) in 50 µL overnight at 4 °C; eluted with 0.1 M glycine/HCl pH 2.5; Western blot. The conditions noted are these: both partners purified.

Assay [2] addresses T2, human C230-A TG2 mutant (oxidation resistant mutant of TG2) (human, UniProt P21980 1-687, C230A).
T2 construct: transglutaminase 2, human, with C230A; source: E. coli BL21(DE3pLysS), purified to homogeneity
T2 sequence (looked up): T1 sequence (looked up) with C230A
Described as above. The conditions noted are these: both partners purified.

The next assay has as its target T3, wild type murine TG2 (murine, UniProt P21981 1-686).
T3 construct: transglutaminase 2, mouse, wild type; construct not described
T3 sequence (looked up): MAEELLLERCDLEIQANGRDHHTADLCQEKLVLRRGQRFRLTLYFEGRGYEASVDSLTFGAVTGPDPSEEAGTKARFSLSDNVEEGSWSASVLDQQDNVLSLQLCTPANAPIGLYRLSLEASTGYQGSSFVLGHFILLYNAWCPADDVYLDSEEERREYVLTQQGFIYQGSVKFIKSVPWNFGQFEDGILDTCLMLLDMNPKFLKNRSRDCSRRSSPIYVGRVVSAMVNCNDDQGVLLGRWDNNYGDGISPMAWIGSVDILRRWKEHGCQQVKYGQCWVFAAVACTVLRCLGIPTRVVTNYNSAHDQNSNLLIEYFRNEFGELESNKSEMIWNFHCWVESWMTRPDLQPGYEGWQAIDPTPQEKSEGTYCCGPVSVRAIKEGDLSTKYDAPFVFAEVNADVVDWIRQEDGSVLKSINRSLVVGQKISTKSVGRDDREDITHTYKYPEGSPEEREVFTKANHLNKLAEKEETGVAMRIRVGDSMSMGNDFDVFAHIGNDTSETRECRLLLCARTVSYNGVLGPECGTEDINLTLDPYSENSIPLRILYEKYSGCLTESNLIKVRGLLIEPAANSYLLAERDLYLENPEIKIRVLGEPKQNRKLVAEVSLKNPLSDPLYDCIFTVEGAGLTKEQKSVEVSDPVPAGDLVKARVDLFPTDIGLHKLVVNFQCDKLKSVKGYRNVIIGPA
The description is as above. The conditions noted are these: both partners purified.

Assay [3] addresses T4, C277S-TG2 (catalytically deficient TG2 C277S mutant) (human, UniProt P21980 1-687, C277S).
T4 construct: transglutaminase 2 with C277S; the results call the analyte of the kinetic studies human TG2; Incubated with 10 mM DTT for 10 min and re-buffered into HBS before SPR; source: E. coli BL21(DE3pLysS), purified to homogeneity
T4 sequence (looked up): T1 sequence (looked up) with C277S
Briefly: SPR; BIAcore T200, protein A sensor chip; 270-320 RU of 1-382 N-GPR56-Fc fusion protein, or conditioned medium containing it (1:10 in HBS), captured; C277S-TG2 (DTT treated) as analyte, 8 serial dilutions; 25 °C, HBS (10 mM Hepes pH 7.4, 0.15 M NaCl, 3 mM EDTA, 0.005% P20), 30 µL/min; with 20 mM Ca2+; equilibrium analysis. The following applies: both partners purified.

Sequence of GPR56 (Mus musculus) (Q8K209 26-382): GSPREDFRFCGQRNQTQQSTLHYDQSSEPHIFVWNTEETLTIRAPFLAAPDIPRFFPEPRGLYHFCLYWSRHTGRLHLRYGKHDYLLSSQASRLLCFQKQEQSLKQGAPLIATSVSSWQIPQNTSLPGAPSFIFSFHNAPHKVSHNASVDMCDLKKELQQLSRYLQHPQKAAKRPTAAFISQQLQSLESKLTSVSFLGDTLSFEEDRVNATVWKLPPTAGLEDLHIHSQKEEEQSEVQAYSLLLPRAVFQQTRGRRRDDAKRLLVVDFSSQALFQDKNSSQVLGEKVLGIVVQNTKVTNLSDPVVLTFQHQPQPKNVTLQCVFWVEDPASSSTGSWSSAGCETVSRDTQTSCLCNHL

Regarding TG2 (from UniProt P21981), the Kd with GPR56 (Mus musculus) is 330 nM.

B1: 1-382 N-GPR56-Fc fusion protein (Fc fusion, human, UniProt Q9Y653 26-382, looked up)
chain: RGHREDFRFCSQRNQTHRSSLHYKPTPDLRISIENSEEALTVHAPFPAAHPASRSFPDPRGLYHFCLYWNRHAGRLHLLYGKRDFLLSDKASSLLCFQHQEESLAQGPPLLATSVTSWWSPQNISLPSAASFTFSFHSPPHTAAHNASVDMCELKRDLQLLSQFLKHPQKASRRPSAAPASQQLQSLESKLTSVRFMGDMVSFEEDRINATVWKLQPTAGLQDLHIHSRQEEEQSEIMEYSVLLPRTLFQRTKGRSGEAEKRLLLVDFSSQALFQDKNSSQVLGEKVLGIVVQNTKVANLTEPVVLTFQHQLQPKNVTLQCVFWVEDPTLSSPGHWSSAGCETVRRETQTSCFCNHL
notes: signal peptide in the construct; Fc retains the cysteine residues for dimerization; The limits 1-382 are printed for the SPR; also called human N-GPR56; source: CHO cells, transfected; conditioned medium, purified on protein G-Sepharose, or conditioned medium used directly; not shown: Fc (human IgG1 heavy chain, amino acids 3-236), C-terminal, kept
As to B1, the binding result (in assay [1]; in assay [2]; with wild type murine TG2) was “binds” each time. For the same molecule, the Kd in assay [3] is around 1200 nM.

Source of the values: paper PMC10889368, “Mesenchymal Transglutaminase 2 Activates Epithelial ADAM17: Link to G-Protein-Coupled Receptor 56 (ADGRG1) Signalling” (International Journal of Molecular Sciences, 2024).
